Source: patent publication US11833164B2, “Methods of treating Fabry disease in patients having a mutation in the GLA gene” (Amicus Therapeutics, Inc., priority 2019, dated 2023)
Where a chain is given by its changes, count along the chain named. In names and notes the source's numbering stands.

B1: V137G (protein)
chain: MQLRNPELHLGCALALRFLALVSWDIPGARALDNGLARTPTMGWLHWERFMCNLDCQEEPDSCISEKLFMEMAELMVSEGWKDAGYEYLCIDDCWMAPQRDSEGRLQADPQRFPHGIRQLANYVHSKGLKLGIYADGGNKTCAGFPGSFGYYDIDAQTFADWGVDLLKFDGCYCDSLENLADGYKHMSLALNRTGRSIVYSCEWPLYMWPFQKPNYTEIRQYCNHWRNFADIDDSWKSIKSILDWTSFNQERIVDVAGPGGWNDPDMLVIGNFGLSWNQQVTQMALWAIMAAPLFMSNDLRHISPQAKALLQDKDVIAINQDPLGKQGYQLRQGDNFEVWERPLSGLAWAVAMINRQEIGGPRSYTIAVASLGKGVACNPACFITQLLPVKRKLGFYEWTSRLRSHINPTGTVLLQLENTMQMSLKDLL
B2: G144R (protein)
chain: B1 chain with G137V, G144R
B3: N139K (protein)
chain: B1 chain with G137V, N139K
B4: N139I (protein)
chain: B1 chain with G137V, N139I
B5: K140E (protein)
chain: B1 chain with G137V, K140E
B6: A143G (protein)
chain: B1 chain with G137V, A143G
B7: G144S (protein)
chain: B1 chain with G137V, G144S
B8: V137L (protein)
chain: B1 chain with G137L
B9: G144C (protein)
chain: B1 chain with G137V, G144C
B10: V137I (protein)
chain: B1 chain with G137I
B11: F145C (protein)
chain: B1 chain with G137V, F145C
B12: K140I (protein)
chain: B1 chain with G137V, K140I
B13: A143E (protein)
chain: B1 chain with G137V, A143E
B14: K140Q (protein)
chain: B1 chain with G137V, K140Q
B15: K140R (protein)
chain: B1 chain with G137V, K140R
B16: T141S (protein)
chain: B1 chain with G137V, T141S
B17: G138A (protein)
chain: B1 chain with G137V, G138A
B18: N139Y (protein)
chain: B1 chain with G137V, N139Y
B19: K140N (protein)
chain: B1 chain with G137V, K140N
B20: G144A (protein)
chain: B1 chain with G137V, G144A
B21: N139H (protein)
chain: B1 chain with G137V, N139H

Test system: mutant form of α-Gal A expressed in HEK-293 cells
Test: HEK assay (GLP HEK / Migalastat Amenability Assay): α-Gal A activity in lysates of transiently transfected HEK-293 cells incubated with or without 10 μM migalastat
Type: cell-based, human
Conditions: for Absolute increase (% WT): 10 μM migalastat versus baseline; for Relative increase: 10 μM migalastat α-Gal A activity relative to baseline; for 10 μM migalastat α-Gal A activity (% WT): 5 days; for 10 μM migalastat α-Gal A activity (% WT) / Baseline α-Gal A activity (% WT): percentage of baseline wild-type α-Gal A activity; for 10 μM migalastat α-Gal A activity (% WT) / Baseline α-Gal A activity (% WT) / Baseline α-Gal A activity / 10 μM migalastat α-Gal A activity: mean ± SEM; for Baseline α-Gal A activity (% WT): absence of migalastat; for Baseline α-Gal A activity / 10 μM migalastat α-Gal A activity: lysates of HEK-293 cells transfected with the mutant form; for Baseline α-Gal A activity: incubated 5 days in the absence of migalastat; for 10 μM migalastat α-Gal A activity: incubated 5 days with 10 μM migalastat
Method in brief: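 Activity reported as 4-MU released (nmol/mg/hr), mean±SEM, from lysates of transiently transfected HEK-293 cells expressing mutant α-Gal A, cultured with or without 10 μM migalastat.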

Row | Molecule | Absolute increase (% WT) | Relative increase | 10 μM migalastat α-Gal A activity (% WT) | Baseline α-Gal A activity (% WT) | Baseline α-Gal A activity | 10 μM migalastat α-Gal A activity
1 | B1 | 52.4 % WT | 2.2 | 98.2 ± 5 % WT | 45.9 ± 4.2 % WT | 16515 ± 1170 nmol/mg/h | 36258 ± 1701 nmol/mg/h
2 | B2 | 37.7 % WT | 2.0 | 73.4 ± 6.5 % WT | 35.7 ± 2.8 % WT | 10574 ± 838 nmol/mg/h | 21406 ± 1764 nmol/mg/h
3 | B3 | 33.8 % WT | 1.3 | 127.4 ± 8.8 % WT | 93.6 ± 5.8 % WT | 33797 ± 2244 nmol/mg/h | 45090 ± 2667 nmol/mg/h
4 | B4 | 26.4 % WT | 1.5 | 78.3 ± 4.5 % WT | 51.8 ± 5.1 % WT | 17180 ± 1455 nmol/mg/h | 26326 ± 1627 nmol/mg/h
5 | B5 | 59.5 % WT | 1.8 | 132.1 ± 9 % WT | 72.6 ± 5.8 % WT | 26053 ± 1925 nmol/mg/h | 46670 ± 2685 nmol/mg/h
6 | B6 | 51.9 % WT | 1.8 | 119.7 ± 5.9 % WT | 67.8 ± 3.4 % WT | 20419 ± 1260 nmol/mg/h | 36821 ± 2997 nmol/mg/h
7 | B7 | 30.4 % WT | 1.6 | 78 ± 5.6 % WT | 47.6 ± 2.4 % WT | 14190 ± 967 nmol/mg/h | 23153 ± 1847 nmol/mg/h
8 | B8 | 11.7 % WT | 1.3 | 53.3 ± 3.7 % WT | 41.6 ± 2.1 % WT | 15359 ± 656 nmol/mg/h | 19794 ± 1475 nmol/mg/h
9 | B9 | 7.1 % WT | 3.9 | 9.5 ± 0.8 % WT | 2.5 ± 0.2 % WT | 759 ± 69 nmol/mg/h | 2988 ± 262 nmol/mg/h
10 | B10 | 24.7 % WT | 1.8 | 57.4 ± 2.5 % WT | 32.8 ± 1.6 % WT | 12148 ± 597 nmol/mg/h | 21313 ± 987 nmol/mg/h
11 | B11 | 25.7 % WT | 14.4 | 27.8 ± 0.8 % WT | 2.1 ± 0.2 % WT | 768 ± 54 nmol/mg/h | 11083 ± 678 nmol/mg/h
12 | B12 | 49.4 % WT | 2.1 | 92.1 ± 7.1 % WT | 42.7 ± 3.3 % WT | 15415 ± 1294 nmol/mg/h | 32440 ± 2092 nmol/mg/h
13 | B13 | 11.4 % WT | 1.5 | 37.3 ± 1.8 % WT | 25.9 ± 1.5 % WT | 7681 ± 439 nmol/mg/h | 11458 ± 884 nmol/mg/h
14 | B14 | 42.5 % WT | 1.4 | 165.7 ± 9.7 % WT | 123.2 ± 12.1 % WT | 42995 ± 3236 nmol/mg/h | 59162 ± 3600 nmol/mg/h
15 | B15 | 39.4 % WT | 1.3 | 180.9 ± 15 % WT | 141.5 ± 12 % WT | 50348 ± 3558 nmol/mg/h | 62820 ± 3401 nmol/mg/h
16 | B16 | 34.4 % WT | 1.5 | 98.2 ± 9.1 % WT | 63.8 ± 7.1 % WT | 22602 ± 2254 nmol/mg/h | 34806 ± 2770 nmol/mg/h
17 | B17 | 20.1 % WT | 2.3 | 34.5 ± 1.5 % WT | 14.4 ± 1.1 % WT | 4768 ± 480 nmol/mg/h | 11112 ± 732 nmol/mg/h
18 | B18 | 11.7 % WT | 1.2 | 64 ± 5.2 % WT | 52.3 ± 3.8 % WT | 19998 ± 1682 nmol/mg/h | 24303 ± 2079 nmol/mg/h
19 | B19 | 40.3 % WT | 1.4 | 154.1 ± 11.1 % WT | 113.8 ± 9.5 % WT | 40575 ± 2928 nmol/mg/h | 54681 ± 3030 nmol/mg/h
20 | B20 | 15.5 % WT | 1.3 | 60.4 ± 2.8 % WT | 44.9 ± 3.6 % WT | 20304 ± 1590 nmol/mg/h | 27268 ± 1039 nmol/mg/h
21 | B21 | 28.1 % WT | 1.4 | 101.2 ± 7.1 % WT | 73.1 ± 5.4 % WT | 29115 ± 2336 nmol/mg/h | 40678 ± 3158 nmol/mg/h
